The target of the data set is Sp1 (UniProt P08047 2-785). Description: EMSA. Background: A gel shift assay detects complexes by their altered migration in electrophoresis.
Sp1, sequence (P08047 2-785): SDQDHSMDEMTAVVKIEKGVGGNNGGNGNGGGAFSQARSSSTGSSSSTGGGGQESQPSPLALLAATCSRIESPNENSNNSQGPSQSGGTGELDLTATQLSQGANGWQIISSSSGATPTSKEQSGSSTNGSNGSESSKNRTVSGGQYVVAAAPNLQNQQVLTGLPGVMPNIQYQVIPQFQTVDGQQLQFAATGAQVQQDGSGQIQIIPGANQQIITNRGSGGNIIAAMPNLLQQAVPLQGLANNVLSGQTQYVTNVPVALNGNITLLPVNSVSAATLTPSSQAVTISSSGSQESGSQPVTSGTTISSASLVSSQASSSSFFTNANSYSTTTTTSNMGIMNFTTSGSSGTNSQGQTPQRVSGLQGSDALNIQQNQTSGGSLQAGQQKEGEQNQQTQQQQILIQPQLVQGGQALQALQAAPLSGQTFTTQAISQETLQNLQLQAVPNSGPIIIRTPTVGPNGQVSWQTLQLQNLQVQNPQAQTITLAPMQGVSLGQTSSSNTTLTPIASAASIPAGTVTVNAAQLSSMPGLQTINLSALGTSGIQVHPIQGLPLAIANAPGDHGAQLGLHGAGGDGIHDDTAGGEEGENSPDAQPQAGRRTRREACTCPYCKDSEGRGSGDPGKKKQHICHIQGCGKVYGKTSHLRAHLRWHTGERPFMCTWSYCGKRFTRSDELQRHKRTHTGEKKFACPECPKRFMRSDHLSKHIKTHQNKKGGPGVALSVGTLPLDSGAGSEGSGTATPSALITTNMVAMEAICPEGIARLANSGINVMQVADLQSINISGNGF

B1: EZH2 promoter GC-rich oligo, wild type (dsDNA)
DNA 1: ACTTGGCTTCCAGCACCCGCCCCGCCCCTCCCCCGCCCGGGAACTCTGCGGCGCCG
DNA 2: CGGCGCCGCAGAGTTCCCGGGCGGGGGAGGGGCGGGGCGGGTGCTGGAAGCCAAGT
B1: the binding result is recorded as “binds”.

B2: EZH2 promoter GC-rich oligo, mutant (dsDNA)
DNA 1: ACTTGGCTTCCAGCACCCGAAAAGCTTCTCCAACGTTCGGGAACTCTGCGGCGCCG
DNA 2: CGGCGCCGCAGAGTTCCCGAACGTTGGAGAAGCTTTTCGGGTGCTGGAAGCCAAGT
As for B2, the binding result is listed as “no binding”.
